Test results published in US20040002450A1, “Y17 - isolated molecules comprising epitopes containing sulfated moieties, antibodies to such epitopes, and uses thereof” (priority 2000, published 2004).
Non-standard residues stand in square brackets, D forms with d. No end group written: not given here. sY = N[C@@H](Cc1ccc(OS(=O)(=O)O)cc1)C(=O)O

Assays:
Conditions in all cases: remark: other sources report otherwise
Y1 scFv [1] = experiment: competitive FACS, 1 µg Y1-scFv on ~10^7 washed platelets, peptide 2.5 µM
Y1 scFv [2] = experiment: competitive FACS, 1 µg Y1-scFv on ~10^7 washed platelets, peptide 200 µM
Y1 scFv [3] = experiment: competition ELISA on coated glycocalicin, 0.25 µg/well Y1, peptide 2.5 µM
Y1 scFv [4] = experiment: competition ELISA on coated glycocalicin, 0.25 µg/well Y1, peptide 25 µM
Y1 scFv [5] = experiment: competition ELISA on coated glycocalicin, 0.25 µg/well Y1, peptide 0.5 µM
Y1 scFv [6] = experiment: competition ELISA on coated glycocalicin, 0.25 µg/well Y1, peptide 200 µM

Chain of Y1 scFv (chain, as listed by the source): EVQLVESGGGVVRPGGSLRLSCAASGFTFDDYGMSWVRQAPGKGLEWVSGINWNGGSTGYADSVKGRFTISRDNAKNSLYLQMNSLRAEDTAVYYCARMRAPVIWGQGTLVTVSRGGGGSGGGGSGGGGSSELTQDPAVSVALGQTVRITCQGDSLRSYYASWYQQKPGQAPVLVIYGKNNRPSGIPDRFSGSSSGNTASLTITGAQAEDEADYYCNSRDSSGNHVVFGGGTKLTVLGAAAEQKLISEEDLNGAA

Residual Binding of Y1 (% of baseline) (Geo Mean) (% of baseline) (Y1 scFv [1]): 41
Residual Binding of Y1 (% of baseline) (Geo Mean) (% of baseline) (Y1 scFv [2]): 5
Residual Binding of Y1 (% of baseline) (% of baseline) (Y1 scFv [3]): 62
Residual Binding of Y1 (% of baseline) (% of baseline) (Y1 scFv [4]): 25
Residual Binding of Y1 (% of baseline) (% of baseline) (Y1 scFv [5]): 89
Residual Binding of Y1 (% of baseline) (% of baseline) (Y1 scFv [6]): 0
Binder: GDEGDTDL[sY]D[sY][sY]PEEDTE [P-1-S]
